# Laboratory results taken from PMC2430598, “Structural Analysis Reveals Conformational Plasticity in the Recognition of RNA 3′ Ends by the Human La Protein”.
# T1: LaNTD (La 4-194) (Homo sapiens, UniProt P05455 4-194)
# T1 sequence: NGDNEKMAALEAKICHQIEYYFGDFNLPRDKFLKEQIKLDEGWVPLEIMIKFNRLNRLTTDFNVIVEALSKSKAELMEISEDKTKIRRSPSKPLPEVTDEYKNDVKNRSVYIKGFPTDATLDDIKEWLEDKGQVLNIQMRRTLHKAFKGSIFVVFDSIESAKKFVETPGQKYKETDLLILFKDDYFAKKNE
# T2: LaNTD (La 1-194) (Homo sapiens, UniProt P05455 1-194)
# T2 sequence: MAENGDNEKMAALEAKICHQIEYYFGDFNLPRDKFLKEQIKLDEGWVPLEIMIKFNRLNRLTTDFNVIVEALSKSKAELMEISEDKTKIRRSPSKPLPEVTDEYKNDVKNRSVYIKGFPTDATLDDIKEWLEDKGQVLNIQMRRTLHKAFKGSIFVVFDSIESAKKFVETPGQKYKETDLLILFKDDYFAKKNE
# Columns and labels:
# LaNTD (La 4-194) [1] = molecular target: T1, LaNTD (La 4-194); assay: X-ray crystallography; 2.1 A, C2; EMSA: ~1 nM radiolabeled RNA, protocol of Jacks et al. 2003 (buffer, salt, pH, temperature not given); NMR: 15N-LaNTD, RNA:protein 0.2-1.5:1, NMR buffer not given; details: protein: recombinant; tags: N-terminal 6xHis removed by thrombin; leaves Gly-Ser; single strand
# LaNTD (La 1-194) [2] = molecular target: T2, LaNTD (La 1-194); assay: NMR HSQC titration; EMSA: ~1 nM radiolabeled RNA, protocol of Jacks et al. 2003 (buffer, salt, pH, temperature not given); NMR: 15N-LaNTD, RNA:protein 0.2-1.5:1, NMR buffer not given; details: protein: recombinant; single strand
# LaNTD (La 1-194) [3] = molecular target: T2, LaNTD (La 1-194); assay: NMR HSQC titration and relaxation; EMSA: ~1 nM radiolabeled RNA, protocol of Jacks et al. 2003 (buffer, salt, pH, temperature not given); NMR: 15N-LaNTD, RNA:protein 0.2-1.5:1, NMR buffer not given; details: protein: recombinant; single strand
# LaNTD (La 1-194) [4] = molecular target: T2, LaNTD (La 1-194); assay: EMSA; EMSA: ~1 nM radiolabeled RNA, protocol of Jacks et al. 2003 (buffer, salt, pH, temperature not given); NMR: 15N-LaNTD, RNA:protein 0.2-1.5:1, NMR buffer not given; details: protein: recombinant, single strand
# LaNTD (La 1-194) [5] = molecular target: T2, LaNTD (La 1-194); assay: NMR HSQC titration; split resonances, two states; EMSA: ~1 nM radiolabeled RNA, protocol of Jacks et al. 2003 (buffer, salt, pH, temperature not given); NMR: 15N-LaNTD, RNA:protein 0.2-1.5:1, NMR buffer not given; details: protein: recombinant; single strand
# LaNTD (La 4-194) [6] = molecular target: T1, LaNTD (La 4-194); assay: X-ray crystallography; 2.8 A, C222; EMSA: ~1 nM radiolabeled RNA, protocol of Jacks et al. 2003 (buffer, salt, pH, temperature not given); NMR: 15N-LaNTD, RNA:protein 0.2-1.5:1, NMR buffer not given; details: protein: recombinant; tags: N-terminal 6xHis removed by thrombin; leaves Gly-Ser; single strand
# LaNTD (La 4-194) [7] = molecular target: T1, LaNTD (La 4-194); assay: X-ray crystallography; 1.8 A, P21212; only last two U modelled; EMSA: ~1 nM radiolabeled RNA, protocol of Jacks et al. 2003 (buffer, salt, pH, temperature not given); NMR: 15N-LaNTD, RNA:protein 0.2-1.5:1, NMR buffer not given; details: protein: recombinant; tags: N-terminal 6xHis removed by thrombin; leaves Gly-Ser; single strand
# LaNTD (La 1-194) [8] = molecular target: T2, LaNTD (La 1-194); assay: EMSA; reference oligomer for relative Kd; EMSA: ~1 nM radiolabeled RNA, protocol of Jacks et al. 2003 (buffer, salt, pH, temperature not given); NMR: 15N-LaNTD, RNA:protein 0.2-1.5:1, NMR buffer not given; details: protein: recombinant; label: radiolabeled; single strand
binder,measurement,setting,value
AUAAUUU (ssRNA),binding result,LaNTD (La 4-194) [1],binds
UCUU (ssRNA),binding result,LaNTD (La 1-194) [2],binds
UUU (ssRNA),binding result,LaNTD (La 1-194) [3],binds
CACACACCUU (ssRNA),binding signal,LaNTD (La 1-194) [4]; label: radiolabeled,2.4 ± 0.5 Kd relative to CACACAAUUU (30 nM)
AUUUU (ssRNA),binding result,LaNTD (La 1-194) [5],binds
same,binding result,LaNTD (La 4-194) [6],binds
CACACAAAUU (ssRNA),binding signal,LaNTD (La 1-194) [4]; label: radiolabeled,2.8 ± 1.1 Kd relative to CACACAAUUU (30 nM)
CACACAACUU (ssRNA),binding signal,LaNTD (La 1-194) [4]; label: radiolabeled,2 ± 0.8 Kd relative to CACACAAUUU (30 nM)
CACACACUUU (ssRNA),binding signal,LaNTD (La 1-194) [4]; label: radiolabeled,1.2 ± 0.4 Kd relative to CACACAAUUU (30 nM)
CACACAUAUU (ssRNA),binding signal,LaNTD (La 1-194) [4]; label: radiolabeled,1 ± 0.2 Kd relative to CACACAAUUU (30 nM)
AUAUUUU (ssRNA),binding result,LaNTD (La 4-194) [1],binds
UUUUUUUUUU (ssRNA) [UUUUUUUUUU (U10)],binding signal,"LaNTD (La 1-194) [4]; (radiolabeled) in gel shift, unlabeled in NMR",1 ± 0.4 Kd relative to CACACAAUUU (30 nM)
UUUUUUUU (ssRNA) [UUUUUUUU (U8)],binding result,LaNTD (La 4-194) [7],binds
ACACACUUUU (ssRNA),binding signal,LaNTD (La 1-194) [4]; label: radiolabeled,0.7 ± 0.2 Kd relative to CACACAAUUU (30 nM)
CACACAAUUU (ssRNA),Kd,LaNTD (La 1-194) [8],30 nM
CACACAUUUU (ssRNA),binding signal,LaNTD (La 1-194) [4]; label: radiolabeled,0.8 ± 0.3 Kd relative to CACACAAUUU (30 nM)
UUUU (ssRNA),binding result,LaNTD (La 1-194) [3],binds
CACACAUCUU (ssRNA),binding signal,LaNTD (La 1-194) [4]; label: radiolabeled,1.4 ± 0.5 Kd relative to CACACAAUUU (30 nM)
